Experimental data published in paper PMC13579936, “Walking the tightrope: Balancing opposing cooperativities in dynein assembly” (The Journal of Biological Chemistry, 2026).

B1: D. melanogaster dynein intermediate chain ICTL (domain or fragment, UniProt Q24246 84-143, looked up)
chain: SNTQTPDASLQATVNGQSGGKKQPLNLSVYNVQATNIPPKETLVYTKQTQTTSTGGGNGD
notes: cytoplasmic dynein intermediate chain (IC), D. melanogaster; source: purity verified by SDS-PAGE and size-exclusion chromatography
B2: D. melanogaster dynein light chain LC8 (homodimer) (natural protein)
chain: MSDRKAVIKNADMSEEMQQDAVDCATQALEKYNIEKDIAAYIKKEFDKKYNPTWHCIVGRNFGSYVTHETRHFIYFYLGQVAILLFKSG
notes: dynein light chain LC8, D. melanogaster; homodimer; source: purity verified by SDS-PAGE and size-exclusion chromatography
B3: D. melanogaster dynein light chain Tctex1 (homodimer) (natural protein)
chain: MDDSREESQFIVDDVSKTIKEAIETTIGGNAYQHDKVNNWTGQVVENCLTVLTKEQKPYKYIVTAMIMQKNGAGLHTASSCYWNNDTDGSCTVRWENKTMYCIVSVFGLAV
notes: dynein light chain Tctex1, D. melanogaster; homodimer; source: purity verified by SDS-PAGE and size-exclusion chromatography

Tests used:
Assay in all cases: ITC; VP-ITC, 25 °C; 50 mM sodium phosphate, 50 mM sodium chloride, 1 mM sodium azide, pH 7.5; 39 isotherms of eight experiment types (IC in cell or in syringe, two- and three-protein titrations, dissociation; 27 from ref. 8, 12 new) fitted globally to a seven-state model by hierarchical Bayesian inference
[1] = molecular target: TILI: one IC chain with a half-bound Tctex1 homodimer and a half-bound LC8 homodimer (D. melanogaster) (UniProt Q94524)
[2] = molecular target: B2; conditions: both partners purified
[3] = molecular target: B3; conditions: both partners purified
[4] = molecular target: T1, TI: Tctex1 homodimer with one IC chain bound (half-bound) (D. melanogaster, UniProt Q94524 1-111; Q24246 84-143); conditions: both partners purified
T1 construct: dynein light chain Tctex1, D. melanogaster; as the chain of m3; cytoplasmic dynein intermediate chain, D. melanogaster, construct ICTL; as the chain of m1; source: formed from the purified proteins m1 and m3 in the ITC samples; copies: 2 + 1
T1 sequence 1: B3 chain
T1 sequence 2: B1 chain

[5] = molecular target: T2, TII: Tctex1 homodimer with two IC chains bound (D. melanogaster, UniProt Q94524 1-111; Q24246 84-143); conditions: both partners purified
T2 construct: dynein light chain Tctex1, D. melanogaster; as the chain of m3; cytoplasmic dynein intermediate chain, D. melanogaster, construct ICTL; as the chain of m1; source: formed from the purified proteins m1 and m3 in the ITC samples; copies: 2 + 2
T2 sequence 1: B3 chain
T2 sequence 2: B1 chain

[6] = molecular target: T3, LI: LC8 homodimer with one IC chain bound (half-bound) (D. melanogaster, UniProt Q24117 1-89; Q24246 84-143); conditions: both partners purified
T3 construct: dynein light chain LC8, D. melanogaster; as the chain of m2; cytoplasmic dynein intermediate chain, D. melanogaster, construct ICTL; as the chain of m1; source: formed from the purified proteins m1 and m2 in the ITC samples; copies: 2 + 1

[7] = molecular target: T4, LII: LC8 homodimer with two IC chains bound (D. melanogaster, UniProt Q24117 1-89; Q24246 84-143); conditions: both partners purified
T4 construct: dynein light chain LC8, D. melanogaster; as the chain of m2; cytoplasmic dynein intermediate chain, D. melanogaster, construct ICTL; as the chain of m1; source: formed from the purified proteins m1 and m2 in the ITC samples; copies: 2 + 2

B1 was tested, and the dH [1] was -18.1 kcal/mol, the “dH, first IC on the LC8 dimer (state LI)” value [2] was -14.8 kcal/mol and the “dH, second IC on the LC8 dimer (LI to LII)” value [2] was -15.1 kcal/mol. The “dH, first IC on the Tctex1 dimer (state TI)” value [3] was -6.76 kcal/mol and the “dH, second IC on the Tctex1 dimer (TI to TII)” value [3] was -4.97 kcal/mol.

B2 was tested, and the dH [4] was -12.7 kcal/mol and the dH [5] was -25.8 kcal/mol.

Work on B3 yielded a dH [6] of -4.7 kcal/mol and a dH [7] of -7.72 kcal/mol.
